Experimental data published in patent US20170247475A1 (Boehringer Ingelheim, published 2017).
Residue numbers refer to the chain shown, from its start.

B1: VEGFBII22A10 (VHH)
VHH: EVQLVESGGGLVQPGDSLKLSCAFSGRTFSSYSMGWFRQAQGKEREFVVAISSSGGYIYDSVSLEGRFTISRDNTKNTVYLQTPSLKPEDTADYYCAASRAYGSSRLRLADTYDYWGQGTQVTVSS
notes: periplasmic extract
B2: VEGFBII39E02 (VHH)
VHH: B1 VHH with S17P
notes: periplasmic extract
B3: VEGFBII31C07 (VHH)
VHH: B1 VHH with P14T, K19R, F24A, R27G
notes: periplasmic extract
B4: VEGFBII42A05 (VHH)
VHH: B1 VHH with T83M
notes: periplasmic extract
B5: VEGFBII22B07 (VHH)
VHH: B1 VHH with P14A, K19R, F24A, G56N, I58K, T83I, P84N, D93V, A110G
notes: periplasmic extract
B6: VEGFBII42D05 (VHH)
VHH: B1 VHH with D93V
notes: periplasmic extract
B7: VEGFBII39G04 (VHH)
VHH: EVPLVESGGGLVQAGDSLRLSCAASGRTFSSYSMGWFRQAQGKEREFVVAISSSGNYKYDSASLEGRFTISRDNTKNTVYLQINSLKPEDTAVYYCAASRAYGSSRLRLGDTYDYWGQGTQVTVSS
notes: periplasmic extract
B8: VEGFBII23A09 (VHH)
VHH: B1 VHH with S30G, T75S, D93V, A110P
notes: periplasmic extract
B9: VEGFBII23F11 (VHH)
VHH: B1 VHH with S54G
notes: periplasmic extract
B10: VEGFBII62A09 (VHH)
VHH: B1 VHH with G10D, F24A, D93V
notes: periplasmic extract
B11: VEGFBII22B06 (VHH)
VHH: B1 VHH with F24A, D93V
notes: periplasmic extract
B12: VEGFBII40G07 (VHH)
VHH: B1 VHH with T78A
notes: periplasmic extract
B13: VEGFBII62D10 (VHH)
VHH: B7 VHH with P3Q, G8E, A62V
notes: periplasmic extract
B14: VEGFBII56E11 (VHH)
VHH: B1 VHH with T91A
notes: periplasmic extract
B15: VEGFBII23G03 (VHH)
VHH: B1 VHH with S30G, T75S, D93V, A110P, D111G
notes: periplasmic extract
B16: VEGFBII60A09 (VHH)
VHH: B1 VHH with K76R
notes: periplasmic extract
B17: VEGFBII23F05 (VHH)
VHH: B7 VHH with P3Q, A62V, E89K
notes: periplasmic extract
B18: VEGFBII40H10 (VHH)
VHH: B1 VHH with V5M
notes: periplasmic extract
B19: VEGFBII30E07 (VHH)
VHH: B7 VHH with P3Q, A62V, Q121R
notes: periplasmic extract
B20: VEGFBII111D05 (VHH)
VHH: EVQLVESGGGLVQTGGSLRLSCEASGRTFSSYSMGWFRQAPGKEREFVVAISKGGYKYDSVSLEGRFTISRDNAKNTVYLQINSLRPEDTAVYYCASSRAYGSSRLRLADTYEYWGQGTLVTVSS
B21: VEGFBII113A08 (VHH)
VHH: B20 VHH with A24V, R71K
B22: VEGFBII112D11 (VHH)
VHH: B20 VHH with T14P
B23: VEGFBII111G06 (VHH)
VHH: B20 VHH with T14P, E23A, I82M
B24: VEGFBII41B05 (VHH)
VHH: EVQLVESGGGLVQPGGSLRLSCAFSGRTFSSYSMGWFRQAQGKEREFVVAISSGGFIYDAVSLEGRFTISRDNTKNTVYLQTPSLKPEDTAVYYCAASRAYGSSRLRLADTYDYWGQGTQVTVSS
notes: periplasmic extract
B25: VEGFBII62F02 (VHH)
VHH: B24 VHH with G16D, R19K, S52A, F56Y, N76D
notes: periplasmic extract
B26: VEGFBII41G03 (VHH)
VHH: B24 VHH with G16D, R19K, G35A, D72E
notes: periplasmic extract
B27: VEGFBII61A01 (VHH)
VHH: B24 VHH with P14A, F56Y, I57K, G102A
notes: periplasmic extract
B28: VEGFBII42F11 (VHH)
VHH: B24 VHH with G16D, R19K, A23V, F24A, F29S, M34V, F56Y, A60S, E64Q
notes: periplasmic extract

Assays:
[1] = biological target: T1, recombinant human VEGF165 (human, UniProt P15692-4 27-191); experiment: Biacore, periplasmic extract on hVEGF165 chip
T1 construct: also called hVEGF165; rhVEGF165
Procedure: (§1) Dissociation rates of inhibitory VHHs are analyzed on Biacore (Biacore T100 instrument, GE Healthcare). HBS-EP+ buffer is used as running buffer and experiments are performed at 25° C. […] After immobilization, surfaces are deactivated with 10 min injection of 1M ethanolamine pH8.5. A reference surface is activated and deactivated with respectively EDC/NHS and ethanolamine. Periplasmic extracts of VHHs are injected at a 10-fold dilution in running buffer for 2 min at 45 μl/min and allowed to dissociate for 10 or 15 min. Between different samples, the surfaces are regenerated with regeneration buffer. Data are double referenced by subtraction of the curves on the reference channel and of a blank running buffer injection. […] is evaluated by fitting a two phase decay model in the Biacore T100 Evaluation software v2.0.1.

[2] = biological target: T1, recombinant human VEGF165; experiment: Biacore, periplasmic extract on hVEGF165 chip, two phase decay fit
Procedure: as §1

[3] = biological target: T1, recombinant human VEGF165; experiment: VEGF165/VEGFR2 AlphaScreen

T1 sequence (P15692 other isoform, or with tags, fused parts or gaps limits assumed): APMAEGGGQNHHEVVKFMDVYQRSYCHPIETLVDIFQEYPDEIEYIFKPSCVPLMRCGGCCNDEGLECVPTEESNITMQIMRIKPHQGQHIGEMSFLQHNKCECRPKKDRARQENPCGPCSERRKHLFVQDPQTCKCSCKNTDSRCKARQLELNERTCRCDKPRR

Row | Binder | Binding level (RU) [1] | % fast [2] | % inhibition [3] | IC50 [3]
1 | B1 | 229 RU | 19% |  | 
2 | B2 | 181 RU | 13% |  | 
3 | B3 | 77 RU | 25% |  | 
4 | B4 | 118 RU | 25% |  | 
5 | B5 | 328 RU | 31% |  | 
6 | B6 | 77 RU | 26% |  | 
7 | B7 | 210 RU | 40% |  | 
8 | B8 | 247 RU | 20% |  | 
9 | B9 | 134 RU | 22% |  | 
10 | B10 | 84 RU | 23% |  | 
11 | B11 | 168 RU | 23% |  | 
12 | B12 | 139 RU | 19% |  | 
13 | B13 | 94 RU | 40% |  | 
14 | B14 | 76 RU | 24% |  | 
15 | B15 | 141 RU | 28% |  | 
16 | B16 | 106 RU | 20% |  | 
17 | B17 | 198 RU | 29% |  | 
18 | B18 | 200 RU | 17% |  | 
19 | B19 | 226 RU | 29% |  | 
20 | B20 |  |  | 100% | 0.209 nM
21 | B21 |  |  | 100% | 0.253 nM
22 | B22 |  |  | 100% | 0.221 nM
23 | B23 |  |  | 100% | 0.366 nM
24 | B24 | 324 RU | 16% |  | 
25 | B25 | 205 RU | 21% |  | 
26 | B26 | 332 RU | 20% |  | 
27 | B27 | 275 RU | 21% |  | 
28 | B28 | 100 RU | 46% |  | 
